Laboratory results taken from PMC12513996 (Nature Communications, 2025).

B1: FIP200(1490–1594) (domain or fragment)
chain: SRHSEKIAIRDFQVGDLVLIILDERHDNYVLFTVSPTLYFLHSESLPALDLKPGEGASGASRRPWVLGKVMEKEYCQAKKAQNRFKVPLGTKFYRVKAVSWNKKV
B2: FIP200(1490–1594) of the crystallised FIP200 Claw/ATG16L1 FIR complex (domain or fragment)
chain: B1 chain
B3: Trx-tagged ATG16L1(78–247) (domain or fragment)
chain: NDNQLQEMAQLRIKHQEELTELHKKRGELAQLVIDLNNQMQRKDREMQMNEAKIAECLQTISDLETECLDLRTKLCDLERANQTLKDEYDALQITFTALEGKLRKTTEENQELVTRWMAEKAQEANRLNAENEKDSRRRQARLQKELAEAAKEPLPVEQDDDIEVIVDET

Key:
ATG16L1(78–247) = ATG16L1(78–247) (human, UniProt Q676U5 78-247); test: SEC-MALS
crystal structure = target: the molecule itself; test: crystal structure
FIP200(1490–1594) = target: B1; test: SEC
[1] = target: B2; test: crystal structure
GST-[…]1 = GST-[…]1 (human, UniProt Q9H0R8 1-117); test: SEC
Chain of GST-[…]1 (Q9H0R8 whole entry): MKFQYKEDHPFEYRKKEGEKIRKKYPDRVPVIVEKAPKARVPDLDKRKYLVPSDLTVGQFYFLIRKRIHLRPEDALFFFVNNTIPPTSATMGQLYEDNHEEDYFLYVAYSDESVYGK

For B1, the “stoichiometry N” value (ATG16L1(78–247)) was 1.

With B2 the “stoichiometry N” value (crystal structure) was 2.

EQDDDIEVIVDET (domain or fragment) [Trx-tagged ATG16L1 FIR]: binds (FIP200(1490–1594)).

EQDDDIEVIVDET [ATG16L1(235–247) of the crystallised FIP200 Claw/ATG16L1 FIR complex]: binds [1].

B3: binds (GST-[…]1).
